Molecular target: T1, AtrR (Zn2Cys6 cluster and coiled-coil) (Aspergillus fumigatus, UniProt Q4WI89 50-160)
T1 sequence: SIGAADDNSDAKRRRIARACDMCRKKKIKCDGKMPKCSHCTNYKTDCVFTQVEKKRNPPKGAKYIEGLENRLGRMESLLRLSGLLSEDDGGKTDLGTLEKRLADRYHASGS
Experiment: SPR; largely unaffected; SPR as in earlier publications; binding buffer and temperature not in the material (SEC buffer for AtrR and SrbA: 20 mM HEPES, 150 mM NaCl); 1:1 model with mass transport
Conditions: protein: recombinant; tags: N-terminal MBP, removed by TEV; chain copies: 2

B1: Pcyp51A SrbA* (dsDNA)
DNA 1: TCTAGAATTCCGAAGTCCGGATGTGTGCTGAGCCGAATGAA
DNA 2: TTCATTCGGCTCAGCACACATCCGGACTTCGGAATTCTAGA
B1: binds.

Reference: paper PMC9241776, “Azole Resistance-Associated Regulatory Motifs within the Promoter of cyp51A in Aspergillus fumigatus”
